Bridge positions count the residues as written; N and C are the ends. Ends that are not written are not given here.
Key:
cyclo[E-LYLAYPAH-K] [1] = target: T1, cyclo[E-LYLAYPAH-K] (synthetic construct, lactam 1-10); assay: yeast surface titration
T1 chain: ELYLAYPAHK

cyclo[E-LYLAYPAH-K] [2] = target: T2, cyclo[E-LYLAYPAH-K] (synthetic construct, lactam 1-10); assay: resin adsorption isotherm
T2 chain: ELYLAYPAHK

Kd (cyclo[E-LYLAYPAH-K] [1]): 680 nM
Kd (cyclo[E-LYLAYPAH-K] [2]): 2640 nM
B1: YAP WW domains 165-271 (protein)
chain: FEIPDDVPLPAGWEMAKTSSGQRYFLNHIDQTTTWQDPRKAMLSQMNVTAPTSPPVQQNMMNSASGPLPDGWEQAMTQDGEIYYINHKNKTTSWLDPRLDPRFAMNQ

Source: article PMC7915732 (2021)
